Results on 25 sequences are retold here after the supplement of paper PMC9732359.

This series can be described thus: protein stability index of a GFP-peptide fusion (yeast GPS) (PSI 1-4); higher = more stable; sorted into four equal gates, so the index is relative within each strain. The method in brief:
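The protein stability index combines read frequencies across sorting gates, each weighted by its gate number and then summed. To obtain those frequencies, a pooled yeast library of GFP fusions to tiled 17-residue yeast protein peptides, on a plasmid also expressing Cherry, was grown to mid-log phase in leucine-free medium. The cells were sorted into four equal gates by GFP/Cherry ratio before plasmid amplification by PCR and Illumina sequencing.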

± gives the uncertainty stated by the source.

As to AEEFDFNVPVVSKQLGN [YAR002W/NUP60], the protein stability index by setting is: (doa10∆) 2.47 ± 0.18; (pdr5∆) 1.35 ± 0.17; (san1∆) 1.28 ± 0.14; (ubr1∆) 1.14 ± 0.11.
In the case of VSGDLNPIHVSRHFASY [FAS1], the protein stability index reads like this: (doa10∆) 2.51 ± 0.12; (pdr5∆) 2.88 ± 0.068; (san1∆) 2.78 ± 0.079; (ubr1∆) 2.81 ± 0.062.
GILRRKSESDELQMRSF [RRP4]: the protein stability index by setting is: (doa10∆) 3.06 ± 0.11; (pdr5∆) 3.04 ± 0.17; (san1∆) 3.18 ± 0.11; (ubr1∆) 3.16 ± 0.084.
For ALSYAALILADSEIEIS [RPP1A], the protein stability index is, setting by setting: (doa10∆) 1.8 ± 0.058; (pdr5∆) 1.93 ± 0.062; (san1∆) 1.78 ± 0.06; (ubr1∆) 1.9 ± 0.04.
In turn, ISNINIPISSETTIDDL [SMC1] came in with a protein stability index (pdr5∆) of 2.69 ± 0.17 and a protein stability index (ubr1∆) of 1.85 ± 0.071.
As for FIRYDVKTPKKTKYILQ [CSN12], the protein stability index amounted to 2.34 ± 0.048 (doa10∆), 2.29 ± 0.048 (pdr5∆), 1.78 ± 0.057 (san1∆) and 2.35 ± 0.051 (ubr1∆).
Under “san1∆”, EREEAEKKRAEQENMRK [MED2] gave a protein stability index of 2.75 ± 0.28.
In turn, THKVTDIYSHEYKVITS [YMR129W/POM152] returned a protein stability index (doa10∆) of 1.71 ± 0.065, a protein stability index (pdr5∆) of 1.97 ± 0.082, a protein stability index (san1∆) of 2.38 ± 0.089 and a protein stability index (ubr1∆) of 2.13 ± 0.064.
Taken in the same sequence, the figures for LQALKANDEEAYIKLLD [SNF2] were 2.91 ± 0.093, 3.29 ± 0.1, 3.36 ± 0.11 and 2.77 ± 0.2.
Taken in the same sequence, the figures for IFKDLVTVFLFMLILAL [COB] were 1.45 ± 0.04, 1.19 ± 0.033, 1.12 ± 0.067 and 1.17 ± 0.025.
Taken in the same sequence, the figures for LVESVDRFKPNLDIAKD [MED4] were 3.37 ± 0.29, 3.33 ± 0.17, 3.15 ± 0.072 and 2.9 ± 0.15.
YHLLNYDPIKRIDAFNA [SSN3] had a protein stability index (doa10∆) of 2.33 ± 0.065, a protein stability index (pdr5∆) of 1.77 ± 0.04, a protein stability index (san1∆) of 1.6 ± 0.074 and a protein stability index (ubr1∆) of 1.73 ± 0.031.
Taken in the same sequence, the figures for TESPLKTVDSSIQPIES [SSN2] were 2.99 ± 0.066, 2.93 ± 0.053, 2.91 ± 0.053 and 2.93 ± 0.03.
Taken in the same sequence, the figures for IYRDRSTFTKHLIKCFF [ITC1] were 2.11 ± 0.043, 1.68 ± 0.038, 2.21 ± 0.046 and 2.26 ± 0.031.
In turn, VQCPTVIKLAKYPDYFP [ARP9] had a protein stability index (doa10∆) of 2.15 ± 0.079, a protein stability index (pdr5∆) of 1.81 ± 0.049, a protein stability index (san1∆) of 2.31 ± 0.092 and a protein stability index (ubr1∆) of 1.82 ± 0.047.
Taken in the same sequence, the figures for IKTRDACPLDNQPWQLA [HRT1] were 3.02 ± 0.085, 2.66 ± 0.063, 2.27 ± 0.073 and 3.12 ± 0.049.
As to VKWYHFDHNDKKLSINS [PRE7], the protein stability index came out at 2.51 ± 0.086 (doa10∆), 2.38 ± 0.063 (pdr5∆), 2.15 ± 0.082 (san1∆) and 2.48 ± 0.1 (ubr1∆).
Taken in the same sequence, the figures for LSTSAFMEIVLEYNVAL [YML031W/NDC1] were 1.98 ± 0.037, 1.71 ± 0.052, 1.78 ± 0.08 and 2.12 ± 0.067.
Taken in the same sequence, the figures for NENKVIIELPNEKFEIE [SRB4] were 2.89 ± 0.077, 2.86 ± 0.081, 2.94 ± 0.055 and 2.8 ± 0.042.
As to VTAKLLGFTPGELRSYL [FAS1], the protein stability index runs as follows: (doa10∆) 2.91 ± 0.073; (pdr5∆) 2.97 ± 0.11; (san1∆) 2.89 ± 0.1; (ubr1∆) 3.1 ± 0.093.
Turning to GRKHVAALRTVKSLVDN [RPL9A], the protein stability index (doa10∆) came to 2.99 ± 0.12, the protein stability index (pdr5∆) turned out to be 3.17 ± 0.079, the protein stability index (san1∆) was determined as 2.91 ± 0.092 and the protein stability index (ubr1∆) is 2.96 ± 0.071.
Taken in the same sequence, the figures for NAYGFIEWCSRCNDNLM [YJL039C/NUP192] were 3 ± 0.079, 2.54 ± 0.088, 2.75 ± 0.083 and 2.24 ± 0.078.
Taken in the same sequence, the figures for NITDYETHPDNSNKQAV [BRR2] were 2.81 ± 0.047, 3 ± 0.045, 2.73 ± 0.037 and 2.9 ± 0.034.
In the case of RYWVQKERSDGKRHIFD [CDC53], the protein stability index came out at 2.49 ± 0.2 (doa10∆), 2.98 ± 0.26 (pdr5∆), 3.46 ± 0.13 (san1∆) and 2.91 ± 0.14 (ubr1∆).
With SLSKISQAFDIVAALPI [RPP1], the protein stability index (doa10∆) worked out at 3.18 ± 0.12, the protein stability index (pdr5∆) stood at 3.46 ± 0.15 and the protein stability index (san1∆) was 2.97 ± 0.13.
